Test results as given in patent US11001846B2, “Aptamers, nucleic acid molecules, polynucleotides, synthetic antibodies compositions for detecting PRRS viruses and treating PRRS virus infection” (AEROVIRUS TECHNOLOGIES INC., priority 2015, dated 2021).

Legend:
[1] = test system: type 2 PRRSV (VR2332, LHVA-93-3, NVSL-93-2335); assay: Strain-specific neutralization (FIG. 11), type 2 strains; type: cell-based
[2] = test system: type 2 PRRSV; settings: after MTT screening of 10 candidates
Text: Using various tetrazolium (MTT) colorimetric assay procedures^[xxxvi], these aptamers have been “screened” to identify the ones having the highest and fastest binding capabilities for detection and therapeutics purposes for both types of PRRSV. It should be pointed out that the aptamer having the quickest binding efficiency but not necessarily the highest binding strength is the most suitable one for the biosensor.

[3] = test system: NVSL PRRS virus; assay: MTT assay, in vitro protection of PAMs or MARC-145 cells from NVSL infection; type: cell-based, PRRSV; settings: 500 pmole, compared to non-infected MARC-145 cells, FIG. 9b
Method: PAMs or MARC-145 cells were plated in 96 well plates (7×10^4/well) one day prior to the assay. Cells were washed twice with Dulbecco's phosphate buffered saline (DPBS) prior to an one (1) hour incubation with Hank's balanced salt solution (HBSS) supplemented with 25 mM HEPES and 4 mM sodium bicarbonate (pH 7.3) including 500TCID50 of LHVA-3 or 500TCID50 of NVSL in the presence or absence of the indicated aptamer concentration. Following infection, cells were incubated in growth medium at 37° C. for 72 hours. MTT assay was performed by adding 4 mg/ml MTT (3-[4,5-Dimethylthiazol-2-yl]-2,5-diphenyltetrazolium bromide dissolved in PBS to the cell cultures and incubation at 37° C. for 3 hours. Plates were then centrifuged at 800×g for 10 min. Supernatants were aspirated and the formazan dye was dissolved in 150 μl/well of isopropyl alcohol, and O.D. values were determined with an ELISA reader at 570 nm.
In Vitro Viral Protection Prior to Viral Infection PAMs or MARC-145 cells were plated on 96 well plates (7×10^4/well) 24 hours prior to the experiment. Each well was washed twice with DPBS prior to treating the cells with various amounts of A505 (12.5 to 2000 pmole) at 37° C. for the indicated time points. Cells were then washed twice with DPBS and infected with 500 TCID50 LHVA-3 (or NVSL or VR-2332 or Lelystad) for 1 hour in enriched HBSS. […]

[4] = test system: MARC-145 cells; settings: no virus; FIG. 10c
[5] = test system: type-1 Lelystad PRRS virus; assay: Strain-specific neutralization (FIG. 11), type 1 strain; type: cell-based, PRRSV
Method: (§1) In Vitro Viral Protection Prior to Viral Infection PAMs or MARC-145 cells were plated on 96 well plates (7×10^4/well) 24 hours prior to the experiment. Each well was washed twice with DPBS prior to treating the cells with various amounts of A505 (12.5 to 2000 pmole) at 37° C. for the indicated time points. Cells were then washed twice with DPBS and infected with 500 TCID50 LHVA-3 (or NVSL or VR-2332 or Lelystad) for 1 hour in enriched HBSS. Following incubation, cells were transferred to growth medium and incubated at 37° C. for 72 hours. Thereafter an MTT assay was implemented as described.

[6] = test system: LHVA-93-3 PRRS virus; assay: Light microscopy and immunofluorescence of infected cells; type: cell-based, PRRSV
[7] = test system: various PRRSV strains; assay: In-vivo protection of swine against various PRRSV strains (Example 4); settings: 15 ug/Kg, treatment on the day of infection; each strain 40TCID50/ml; FIG. 13a
Method: Swine were inoculated intranasally with sub-lethal infectious fluid containing 40TCID50/ml PRRS virus (LHVA-93-3) with or without 2.5 nmole A505 aptamer for different time intervals. Pig body weight was monitored for 2 weeks. Viral titer in the lungs was determined by the CPE titration method (OIE Terrestrial Manual—May 2015, Chapter 2.8.7—Porcine Reproductive and Respiratory Syndrome, section 1.1.3). Other pigs were sacrificed 6 days following viral inoculation and lungs were removed and homogenized in PBS 0.1% BSA (10% w/v). Following homogenization, samples were centrifuged to remove debris and stored at −80° C.
The cells/viruses were incubated for 2-5 days and observe daily for a CPE. At day 2, seed macrophages in new microtitre plates. Fifty (50) μl of the supernatants were transferred from the plates of the first passage to the corresponding wells of the freshly seeded plates (second passage). The wells were incubated for 2-5 days and observed daily for a CPE. The results of the CPE assays were presented as log TCID50.
Were implemented as described hereinabove. A dose of 15 ug/Kg of A505 was used.

[8] = test system: LHVA-3 PRRS virus; assay: MTT assay, in vitro protection of PAMs or MARC-145 cells from LHVA-3 infection; type: cell-based, PRRSV; settings: for protective effect when added after virus incubation: FIG. 9d
Method: PAMs or MARC-145 cells were plated in 96 well plates (7×10^4/well) one day prior to the assay. […] Following infection, cells were incubated in growth medium at 37° C. for 72 hours. MTT assay was performed by adding 4 mg/ml MTT (3-[4,5-Dimethylthiazol-2-yl]-2,5-diphenyltetrazolium bromide dissolved in PBS to the cell cultures and incubation at 37° C. for 3 hours. Plates were then centrifuged at 800×g for 10 min. Supernatants were aspirated and the formazan dye was dissolved in 150 μl/well of isopropyl alcohol, and O.D. values were determined with an ELISA reader at 570 nm.
as §1, with “Cells were then washed twice with DPBS and infected with 500 TCID50 LHVA-3 (or NVSL or VR-2332 or Lelystad) for 1 hour in enriched HBSS.” left out
In Vitro Viral Protection Following Viral Infection—PAMs or MARC-145 cells were plated on 96 well plates (7×10^4/well) 24 hours prior to viral infection. Viral infection was effected as described above. Infected cells were gently washed with DPBS for 3 times. Cells were then treated with various amounts of A505 (12.5 to 2000 pmole) for 1 hour at 37° C. Following incubation, cells were transferred to growth medium and incubated at 37° C. for 72 hours. Thereafter an MTT assay was implemented as described.

B1: A505: ssDNA aptamer binding type 2 PRRSV M-S-S-GP5 complex (nucleic acid)
DNA: GGGCGACCCTGAAGAGTTTGTAATCTGCGATTTTAAAGTTGAGTCGTCGCGAAACGGTGAAAGCCGTAGGTTGCCC
modifications: DNA, backbone and methylation of C not given here
neutralization of PRRS virus strains [1]: only the type 2 PRRSV have been neutralized
binding capabilities from biosensing and therapeutic perspectives [2]: highest binding capabilities
protection against infection of the cells [3]: ~70%
morphology of cells treated with aptamer alone [4]: did not affect the morphology of the cells
effect on type-1 Lelystad PRRS virus [5]: has not effect
cell morphology of infected cells, light microscopy ([6]; MARC-145 cells, virus in the presence of aptamer, FIG. 10b): destruction was inhibited and the cell morphology was largely conserved
viral presence by immunofluorescence ([6]; two days incubation with virus and aptamer, FIG. 10e): almost entirely prevented
prevention of infection (lung virus titer) by various strains [7]: efficient in preventing the infection by all tested strains of PRRSV
survival rate of cells pre-incubated with aptamer then washed before infection ([8]; 500 pmole for 30 min or 60 min, repeated washing, then virus, FIG. 9c): no significant difference between the survival rate of non-treated and treated cells
protection against infection of the cells ([8]; 500 pmole, LHVA-3, compared to non-infected MARC-145 cells, FIG. 9b): ~60%
protective effect when added after virus incubation ([8]; 500 TCID50 LHVA-93-3 for 30 min prior to 500 pmole aptamer, vs infected cells): highly significant difference
protective effect when added after virus incubation ([8]; 500 TCID50 LHVA-93-3 for 60 min prior to 500 pmole aptamer): not significant
virus-associated cell-death ([8]; cells treated with aptamer prior to viral infection, FIG. 9a): significant reduction in virus-associated cell-death
